# ± gives the standard deviation of the averaged measurements.
# Tested on: Saccharomyces cerevisiae
# Assay: protein stability index of tFT-peptide fusion (C-terminal peptide) (PSI (0-1 scale)); higher = more stable (slower turnover)
# Details: genetic background: wild type; temperature: 30 C
# Experimental: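 MPS profiling in S. cerevisiae of the yeast C-terminome library: the last 12 aa of each annotated ORF are fused to the C-terminus of a sfGFP-mCherry timer, after a GGGS linker. Cells are FACS-sorted into 8 mCherry/sfGFP bins and deep-sequenced. PSI runs from 0 (unstable) to 1 (stable); wild type and das1Δ backgrounds, two technical replicates each.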
row,Sequence,protein stability index
1,ENLRLKLKNFLR [MSH5 C-terminal 12 aa],0.688 ± 0.022
2,ENRTMFLSKGKS [YPR172W C-terminal 12 aa],0.667 ± 0.016
3,EPKYVDEDDWSD [CEG1 C-terminal 12 aa],0.68 ± 0.02
4,EQFTRDFGQEGN [VPS4 C-terminal 12 aa],0.671 ± 0.016
5,EQLGHASKRHKP [RPP1 C-terminal 12 aa],0.689 ± 0.0075
6,ERGMYRYYSLKA [LUG1 C-terminal 12 aa],0.621 ± 0.015
7,ERLRFYKDTFTL [RRI1 C-terminal 12 aa],0.653 ± 0.011
8,ERRLSDLQQYHI [TMA10 C-terminal 12 aa],0.683 ± 0.02
9,ERVKIGVQFYEE [RTG2 C-terminal 12 aa],0.736 ± 0.042
10,ESDDDMGFGLFD [RPP0 C-terminal 12 aa],0.717 ± 0.016
11,ESHQDKTEEDIH [OKP1 C-terminal 12 aa],0.726 ± 0.035
12,ESISYLFKNYPL [PRS3 C-terminal 12 aa],0.6937 ± 0.0036
13,ESTTDAESKGSK [MRPL11 C-terminal 12 aa],0.706 ± 0.11
14,ETIWTEWHNLKK [DIG2 C-terminal 12 aa],0.686 ± 0.0099
15,ETRASCLLSRAF [YJL052C-A C-terminal 12 aa],0.698 ± 0.015
16,EVYLQAIDLIDC [PIR3 C-terminal 12 aa],0.6614 ± 0.005
17,EWAEENADNVEW [RPS0A C-terminal 12 aa],0.728 ± 0.028
18,EWFYEKFLGNIF [DIP5 C-terminal 12 aa],0.702 ± 0.014
19,EWVVPEHMLGPK [FUM1 C-terminal 12 aa],0.739 ± 0.041
20,EYGGYGEYGNGS [RTG1 C-terminal 12 aa],0.674 ± 0.0096
21,EYTDFMSWMQDN [YER186C C-terminal 12 aa],0.646 ± 0.15

row,Sequence,protein stability index
1,FAAPIKPSTRAG [YLR347W-A C-terminal 12 aa],0.71 ± 0.0086
2,FAQNTNKDVELN [NGG1 C-terminal 12 aa],0.666 ± 0.046
3,FASNKKVTASLR [AZR1 C-terminal 12 aa],0.6868 ± 0.00086
4,FDELVRKYDTSN [SEC28 C-terminal 12 aa],0.665 ± 0.0076
5,FEFEFFESCYNA [PET18 C-terminal 12 aa],0.744 ± 0.038
6,FGIWNTDMSVWS [YBL081W C-terminal 12 aa],0.7253 ± 0.0045
7,FGKYLPLNYPSE [ASG1 C-terminal 12 aa],0.671 ± 0.015
8,FGNDMVINFETD [UTP22 C-terminal 12 aa],0.731 ± 0.12
9,FHLNAKTRESEI [YDL162C C-terminal 12 aa],0.67952 ± 0.00014
10,FIHDVFFVYFRF [YDL094C C-terminal 12 aa],0.17 ± 0.006
11,FIKLSLASSFSN [ISF1 C-terminal 12 aa],0.661 ± 0.022
12,FINKIYHQKVNL [TMN3 C-terminal 12 aa],0.781 ± 0.004
13,FKAKFRKVKINA [YKR015C C-terminal 12 aa],0.134 ± 0.0025
14,FKIFCNCIQSLA [YPL199C C-terminal 12 aa],0.323 ± 0.009
15,FKSTPIIYSNVI [YER006C-A C-terminal 12 aa],0.642 ± 0.0074
16,FLEIVVPCHCTT [YJL077W-A C-terminal 12 aa],0.56 ± 0.021
17,FLIWRKKVSRNK [YOR329W-A C-terminal 12 aa],0.727 ± 0.11
18,FLNIENPENQSE [RCO1 C-terminal 12 aa],0.674 ± 0.018
19,FLSMTYASLVNK [YLR294C C-terminal 12 aa],0.706 ± 0.062
20,FLVLKIIKALLW [MTC4 C-terminal 12 aa],0.523 ± 0.026
21,FRGKLFLDSITD [MLC2 C-terminal 12 aa],0.73 ± 0.034

row,Sequence,protein stability index
1,FRNYRGHYRGRK [SGS1 C-terminal 12 aa],0.685 ± 0.039
2,FSALVLRGVRGE [YBR196C-B C-terminal 12 aa],0.6769 ± 0.0067
3,FSDFLDSNRITQ [LDB19 C-terminal 12 aa],0.723 ± 0.017
4,FSDWKNNNGPHK [IBA57 C-terminal 12 aa],0.71 ± 0.062
5,FSTIDGSIKDIK [FDO1 C-terminal 12 aa],0.6865 ± 0.0054
6,FTGGDILPPEFN [SPS18 C-terminal 12 aa],0.739 ± 0.015
7,FTHFTSSKDRKD [SIT1 C-terminal 12 aa],0.699 ± 0.021
8,FVAKEIADDSKK [TIM12 C-terminal 12 aa],0.709 ± 0.03
9,GAAVAAGVAFLF [YDR524C-B C-terminal 12 aa],0.717 ± 0.044
10,GAAVRLTGSDRV [RPN7 C-terminal 12 aa],0.679 ± 0.035
11,GAMSEGKTGQLN [YLR036C C-terminal 12 aa],0.6988 ± 0.0014
12,GARPPKNEARII [YBL036C C-terminal 12 aa],0.677 ± 0.038
13,GCDLDISYAKRL [HRB1 C-terminal 12 aa],0.695 ± 0.035
14,GCGCNCPEMFDA [MTC5 C-terminal 12 aa],0.695 ± 0.029
15,GDEEDPNEEAAF [RPC31 C-terminal 12 aa],0.673 ± 0.027
16,GDSDNVVKRLRK [URB1 C-terminal 12 aa],0.707 ± 0.016
17,GECVLTKNNKFT [ATG21 C-terminal 12 aa],0.652 ± 0.026
18,GFIRGSNKFAEV [SMC3 C-terminal 12 aa],0.6658 ± 0.0058
19,GFQTGSASKASA [RPL37A C-terminal 12 aa],0.712 ± 0.019
20,GIVYDFHKSDMY [LSM1 C-terminal 12 aa],0.696 ± 0.043
21,GKDITDQPCIDL [SSP2 C-terminal 12 aa],0.725 ± 0.058

row,Sequence,protein stability index
1,GKTAADNIAKLY [OSM1 C-terminal 12 aa],0.619 ± 0.02
2,GLCLCCTLDMLF [YDL012C C-terminal 12 aa],0.6621 ± 0.0026
3,GLLMAGKASEFQ [VMA16 C-terminal 12 aa],0.72 ± 0.035
4,GMLYALYIVLQD [PMP3 C-terminal 12 aa],0.32 ± 0.0081
5,GNAIREIKTYKY [GLY1 C-terminal 12 aa],0.658 ± 0.052
6,GPSDDDEEDDKK [YGL242C C-terminal 12 aa],0.675 ± 0.07
7,GPTIPISATIRE [RCK2 C-terminal 12 aa],0.735 ± 0.021
8,GPYWKRVLDFWC [GNP1 C-terminal 12 aa],0.739 ± 0.029
9,GPYWKRVVAFWC [AGP1 C-terminal 12 aa],0.549 ± 0.011
10,GRNKIYILFNVL [YMR030W-A C-terminal 12 aa],0.116 ± 0.0082
11,GRVDFQSTSKFT [AIM24 C-terminal 12 aa],0.7036 ± 0.0061
12,GTAASEPTPITK [ATP15 C-terminal 12 aa],0.681 ± 0.017
13,GTKMEWFFDPLA [IPT1 C-terminal 12 aa],0.701 ± 0.0081
14,GTMKVDSWEPVD [ACH1 C-terminal 12 aa],0.6829 ± 0.0049
15,GTVNYAGLHDEL [SED4 C-terminal 12 aa],0.723 ± 0.044
16,GVRKEFYELKRD [PRE7 C-terminal 12 aa],0.693 ± 0.054
17,GYKDRFGNLNVM [ATP7 C-terminal 12 aa],0.687 ± 0.02
18,GYQRGLDEFNKY [MRX18 C-terminal 12 aa],0.681 ± 0.04
19,HEKPHTVSLRHK [CPR4 C-terminal 12 aa],0.721 ± 0.035

# Reference: the supplement of paper PMC10724198
